# B1: Bet3 (recombinant) (natural protein, yeast, UniProt P36149 1-193, looked up)
# chain: MVSTTQSRSLKAMGEEIWKNKTEKINTELFTLTYGSIVAQLCQDYERDFNKVNDHLYSMGYNIGCRLIEDFLARTALPRCENLVKTSEVLSKCAFKIFLNITPNITNWSHNKDTFSLILDENPLADFVELPMDAMKSLWYSNILCGVLKGSLEMVQLDCDVWFVSDILRGDSQTEIKVKLNRILKDEIPIGED
# What was measured:
# [1] = biological target: T1, His6-Trs31 (recombinant) (yeast, UniProt Q03337 1-283); assay: co-purification of co-expressed subunits
# T1 sequence (looked up): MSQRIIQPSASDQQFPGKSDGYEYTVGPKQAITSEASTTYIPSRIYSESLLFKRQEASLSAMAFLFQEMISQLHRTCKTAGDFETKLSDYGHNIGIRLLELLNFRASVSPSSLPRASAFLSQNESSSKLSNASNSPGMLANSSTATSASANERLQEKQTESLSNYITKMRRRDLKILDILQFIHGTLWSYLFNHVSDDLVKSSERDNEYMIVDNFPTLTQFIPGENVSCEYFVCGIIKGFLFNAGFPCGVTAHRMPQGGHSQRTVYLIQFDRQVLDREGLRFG
# [2] = biological target: T2, Trs130-TAP (recombinant) (yeast, UniProt Q03660 1-1102); assay: co-purification of co-expressed subunits
# T2 sequence (looked up): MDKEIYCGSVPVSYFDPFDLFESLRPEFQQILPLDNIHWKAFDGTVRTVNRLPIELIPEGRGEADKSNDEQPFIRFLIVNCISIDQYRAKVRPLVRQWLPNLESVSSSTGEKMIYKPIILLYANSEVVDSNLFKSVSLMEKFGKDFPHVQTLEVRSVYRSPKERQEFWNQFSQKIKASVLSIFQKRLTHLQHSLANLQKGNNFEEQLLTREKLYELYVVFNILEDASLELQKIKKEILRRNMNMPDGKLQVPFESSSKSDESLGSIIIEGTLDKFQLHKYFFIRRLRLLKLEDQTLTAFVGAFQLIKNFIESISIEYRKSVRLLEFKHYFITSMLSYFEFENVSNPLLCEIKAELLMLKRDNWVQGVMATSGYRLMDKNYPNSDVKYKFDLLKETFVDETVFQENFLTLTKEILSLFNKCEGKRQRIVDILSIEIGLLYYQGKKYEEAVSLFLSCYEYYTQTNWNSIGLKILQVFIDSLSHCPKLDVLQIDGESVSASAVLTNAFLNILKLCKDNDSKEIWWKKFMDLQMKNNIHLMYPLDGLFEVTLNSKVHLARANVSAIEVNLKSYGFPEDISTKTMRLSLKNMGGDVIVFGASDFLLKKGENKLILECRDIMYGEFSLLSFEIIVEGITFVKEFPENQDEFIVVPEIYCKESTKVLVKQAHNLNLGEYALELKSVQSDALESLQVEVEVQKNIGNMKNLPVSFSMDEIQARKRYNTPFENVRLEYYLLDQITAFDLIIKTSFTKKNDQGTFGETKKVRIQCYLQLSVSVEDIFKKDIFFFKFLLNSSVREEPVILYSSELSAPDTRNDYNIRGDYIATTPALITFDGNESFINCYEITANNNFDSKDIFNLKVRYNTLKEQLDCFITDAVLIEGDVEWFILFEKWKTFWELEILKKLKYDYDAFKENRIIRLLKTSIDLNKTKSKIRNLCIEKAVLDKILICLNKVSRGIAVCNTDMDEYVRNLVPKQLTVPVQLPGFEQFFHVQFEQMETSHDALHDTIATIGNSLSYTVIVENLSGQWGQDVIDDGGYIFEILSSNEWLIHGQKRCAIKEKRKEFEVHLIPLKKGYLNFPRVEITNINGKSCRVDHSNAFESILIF
binder,measurement,setting,value
B1,stoichiometry N,[1],2
same,stoichiometry N,[2],2

# — PMC5119942 (The Journal of Cell Biology, 2016)
